Source: publication PMC12402178

Assays:
[1] = target: microtubules polymerised from porcine brain tubulin (GMPCPP-stabilised seeds, dynamic GDP lattice, or taxol-stabilised) (porcine) (UniProt P02550); assay: FRAP (TIRF microscopy); anillin-GFP bleached on single GDP (dynamic) microtubules; single exponential fit, median of fits; 26 C
[2] = target: microtubules polymerised from porcine brain tubulin (GMPCPP-stabilised seeds, dynamic GDP lattice, or taxol-stabilised) (porcine) (UniProt P02550); assay: FRAP (TIRF microscopy); anillin-GFP bleached on single GMPCPP microtubules; single exponential fit, median of fits

Anillin-GFP (full-length human anillin, isoform 2, 1087 amino acids), sequence (Q9NQW6 other isoform, or with tags, fused parts or gaps): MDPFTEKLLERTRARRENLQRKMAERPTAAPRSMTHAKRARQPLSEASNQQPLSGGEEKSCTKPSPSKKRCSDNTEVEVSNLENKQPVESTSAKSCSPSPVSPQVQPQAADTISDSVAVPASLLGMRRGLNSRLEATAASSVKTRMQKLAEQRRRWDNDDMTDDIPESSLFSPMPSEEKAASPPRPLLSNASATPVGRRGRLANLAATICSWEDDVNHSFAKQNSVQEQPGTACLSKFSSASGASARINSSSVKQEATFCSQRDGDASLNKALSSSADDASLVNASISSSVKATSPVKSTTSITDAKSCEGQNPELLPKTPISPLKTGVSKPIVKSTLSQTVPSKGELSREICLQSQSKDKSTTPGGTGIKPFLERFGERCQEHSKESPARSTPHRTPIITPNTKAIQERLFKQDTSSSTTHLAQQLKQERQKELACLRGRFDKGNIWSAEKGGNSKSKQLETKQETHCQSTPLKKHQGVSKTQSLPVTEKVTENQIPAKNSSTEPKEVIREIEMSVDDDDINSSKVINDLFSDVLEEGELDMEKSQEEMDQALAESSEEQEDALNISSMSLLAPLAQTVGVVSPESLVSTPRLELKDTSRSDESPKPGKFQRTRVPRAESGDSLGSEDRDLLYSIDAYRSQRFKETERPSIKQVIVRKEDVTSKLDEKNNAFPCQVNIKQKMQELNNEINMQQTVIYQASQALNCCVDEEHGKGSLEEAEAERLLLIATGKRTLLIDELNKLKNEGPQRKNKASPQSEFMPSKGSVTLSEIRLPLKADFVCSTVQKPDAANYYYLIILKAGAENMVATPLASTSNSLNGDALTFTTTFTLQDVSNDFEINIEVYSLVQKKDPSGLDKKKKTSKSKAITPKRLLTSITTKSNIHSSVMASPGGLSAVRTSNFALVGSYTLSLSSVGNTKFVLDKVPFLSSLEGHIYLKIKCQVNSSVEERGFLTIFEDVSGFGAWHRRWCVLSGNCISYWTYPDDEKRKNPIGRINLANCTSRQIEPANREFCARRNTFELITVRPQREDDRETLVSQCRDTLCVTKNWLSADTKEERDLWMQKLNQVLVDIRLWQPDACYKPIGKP

- koff [1]: 1.07 s⁻¹
- koff [2]: 0.26 s⁻¹
Substance: Anillin-GFP (full-length human anillin, isoform 2, 1087 amino acids) (from UniProt Q9NQW6-2 1-1087) (natural protein)
